Data from patent US20240400663A1 (Regeneron, published 2024).

Columns and labels:
Experiment in all cases: cell-based or functional assay
[1] = molecular target: PfRH5 of Plasmodium falciparum strain W2-mef (on live parasites) (Plasmodium falciparum)
[2] = molecular target: T1, PfRH5 of Plasmodium falciparum strain FCR-1/FVO (on live parasites) (Plasmodium falciparum)
[3] = molecular target: T2, PfRH5 of Plasmodium falciparum strain 7G8 (on live parasites) (Plasmodium falciparum)
[4] = molecular target: PfRH5 of Plasmodium falciparum strain RF7 (on live parasites) (Plasmodium falciparum)
[5] = molecular target: PfRH5 of Plasmodium falciparum strain HB3 (on live parasites) (Plasmodium falciparum)
[6] = molecular target: PfRH5 of Plasmodium falciparum strain Cam3.II (on live parasites) (Plasmodium falciparum)
[7] = molecular target: T3, PfRH5 of Plasmodium falciparum strain Dd2 (on live parasites) (Plasmodium falciparum)
[8] = molecular target: PfRH5 of Plasmodium falciparum strain D10 (on live parasites) (Plasmodium falciparum)
[9] = molecular target: T1, PfRH5 of Plasmodium falciparum strain …; remark: listed apart in the source
[10] = molecular target: T2, PfRH5 of Plasmodium falciparum strain …; remark: listed apart in the source
[11] = molecular target: T3, PfRH5 of Plasmodium falciparum strain …; remark: listed apart in the source

Binder | Max growth inhibition (%) W2-mef [1] | Max growth inhibition (%) FCR-1/FVO [2] | Max growth inhibition (%) 7G8 [3] | Max growth inhibition (%) RF7 [4] | Max growth inhibition (%) HB3 [5] | Max growth inhibition (%) Cam3.II [6] | Max growth inhibition (%) Dd2 [7] | Max growth inhibition (%) D10 [8] | Percent Maximum Growth Inhibition, FCR-1/FVO, mAb (6.67 µM) + AHIS (10%) [9] | Percent Maximum Growth Inhibition, FCR-1/FVO, mAb (6.67 µM) + ANS (10%) [9] | Percent Maximum Growth Inhibition, FCR-1/FVO, mAb (6.67 µM) + HHIS (10%) [9] | Percent Maximum Growth Inhibition, FCR-1/FVO, mAb (6.67 µM) + HNS (10%) [9] | Percent Maximum Growth Inhibition, FCR-1/FVO, mAb (6.67 µM) + No serum [9] | Max growth inhibition (%) 7G8, no chloroquine [10] | Maximum growth inhibition (%) Dd2 [11]
H1H29196P2 (antibody, V domains shown) VH: EVQLVESGGDLVQPGGSLRLSCAASGFAVNGDYFSWVRQAPGKGLEWISVIYSSGNTYYADSVKGRFTISRHNSKNTLYLQMSSLRPEDTAVYYCARDFPPMSGADYWGQGTLVTVSS VL: not shown | 17% | 21.9% | 23.4% | 3.78% | 26.8% | 6.09% | -1.65% | 14.3% |  |  |  |  |  |  | 
H1H29147P2 (antibody, V domains shown) VH: QVQLVQSGAEVKNPGSSVKVSCKASGGTFSSYTINWVRQAPGQGLEWMGGIIPLYGTANYAQKFQARVTISTDESTNTAYMELSNLRFEDTAVYFCASTLELRAFDAFDIWGQGTMVTVSS VL: not shown | 64.7% | 70.3% | 65.2% | 31.4% | 64.8% | 51.9% | 65.3% | 81.4% | 86.2% | 80.3% | 83.4% | 85.6% | 84.1% | 47.3% | 
H1H29106P (antibody, V domains shown) VH: QVQLVESGGGVVQSGRSLRLSCAASSFTFSSYGMHWVRQSPGKGLEWVAVISYDGSNKYYGDFVRGRFTISRDNSKNTLYLQMNSLRAEDTAMYYCAREVRRYYYYGMDVWGQGTTVTVSS VL: not shown | 48.9% | 54.3% | 55.5% | 27.4% | 48.4% | 51.7% | 54% | 74.9% |  |  |  |  |  |  | 
H1H29215P2 (antibody, V domains shown) VH: QVQLQQWGAGLLKPSETLSLTCAVSDESFSDYYWTWIRQPPGKGLEWIGEITHSGSTHYNPSLKSRVTLSVDTSKNHFSLSLNSVTAADTAIYYCARGGDYGGLLDYWGQGTLVTVSS VL: not shown | 37.2% | 54% | 33.2% | 11.3% | 30.1% | 27.2% | 22.8% | 35.8% |  |  |  |  |  |  | 
H1H29143P (antibody, V domains shown) VH: EVQLVESGGGLVQPGGSLRLSCAASGFTFNNYAMSWVRQAPGRGLEWVSAISGSGDSTYYSDSVKGRFTISRDNSKNTLYLQMNSLRAEDTAVYYCAKDQGLYYYGSGSFDYWGQGTLVTVSS VL: not shown | 58.3% | 67.2% | 61.9% |  | 60.9% | 53.2% | 62.7% | 79.4% |  |  |  |  |  |  | 56%
H1H29104P (antibody, V domains shown) VH: EVQLVESGGGLVQPGRSLRLSCAASGFRFDDYAMHWVRQAPGKGLEWVSGINWNSGGKGYADSVQGRFTISRDNAKNSLYLQMNSLRTEDTALYYCAKDRGIAARLLSRDAFDMWGQGTMVTVSS VL: DIQLTQSPSFLSASVGDRVTITCWASQDVSSYLAWYQQKPGKSPKLLIFAASTLQGGIPSRFSGSGSGTEFTLTISSLRPEDFATYYCQHLNTYPYTFGQGTKLEIKR | 47.4% | 67.4% | 35.2% | 23.6% | 39.8% | 50% | 61.3% | 55.7% |  |  |  |  |  |  | 54.1%
H1H29109P (antibody, V domains shown) VH: EVQLVESGGGLVQPGRSLRLSCAVSGFTFDDYAMHWVRQAPGKGLEWVSGISWNSGDIDYADSVKGRFTISRDNAKNSLYLQMNSLRAEDTALYYCAKDTLSGTGTTWYYFDYWGQGTLVTVSS VL: DIQLTQSPSFLSASVGDRVTITCWASQGISSYLIWYQQKPGKAPKLLIYAASTLQSGVPSRFSGSGSGTEFTLTISSLQPEDFATYYCQQVNSYPLTFGGGTKVEIKR | 37.9% | 56.7% | 39% | 8.24% | 32.2% | 35.9% | 42% | 44.8% |  |  |  |  |  |  | 
